“Also recorded” adds a separate entry of the source.
Columns and labels:
[1] = tested on: tissue HA (hyaluronan); experiment: Histochemical HA staining of skeletal muscle and skin biopsies; type: in vivo, beagle dog
Procedure: Twenty-four hours post-dose (Day 60), skeletal muscle biopsies were taken from each of the three treated dogs and also from an untreated control beagle dog. The medial semitendinosis/medial membranosus muscle(s) were targeted for biopsies. The area of the biopsy was shaved using electric clippers and scrubbed using either Chlorhexidine or Povidone-Iodine solutions. Bupivacaine or Lidocaine (2-3 mg/kg) was injected subcutaneously (SC) in the area of the biopsy for local analgesia. The muscle biopsy was collected using a 2-mm-diameter biopsy needle. A gauze sponge was applied with slight pressure to stop any bleeding. Metacam (meloxicam) 0.2 mg/kg was injected SC to control pain. Biopsy samples were placed in Eppendorf tubes or equivalent with approximately 200 μL 10% neutral-buffered formalin (NBF).
Biopsied tissue samples were stained for tissue HA using a highly specific histochemical staining method. […] The cell nuclei were counterstained with DAPI (4′,6-diamidino-2-phenylindole) reagent. Micrographs were then captured using a Zeiss Microscope (Thornwood, N.Y.) coupled with the Spot imaging program (Diagnostic Instruments, Inc).
The medial semitendinosis/medial membranosus muscle(s) were targeted for biopsies. The area of the biopsy was shaved using electric clippers and scrubbed using either Chlorhexidine or Povidone-Iodine solutions. […]

[2] = tested on: hyaluronan present in the circulation; experiment: Plasma HA and catabolites (disaccharide assay) in patients; type: in vivo, human
Procedure: This Example describes a method for the determination of the HA-disaccharide content in plasma. The method employs the hydrolysis of HA with Chondroitinase ABC to release the HA-disaccharides, derivatize them with 2-amino acridone (AMAC) and analyze them on a reverse-phase HPLC coupled with fluorescence detection. Quantitation of the HA-disaccharides is accomplished by comparison with HA-disaccharide standards.
Next, the sample was hydrolyzed. The sample (e.g. plasma) was prepared by taking approximately 100 μg of protein in a polypropylene tube and adjusting the volume to 340 μl with water. A matrix blank also was prepared by taking dilution buffer (1.59 g HEPES, 5.07 g NaCl, 1800 mL water, pH 7.0) equal to the volume of the sample and adjusting the volume to 340 μl. Hydrolysis of the samples and matrix blank were effected by adding 60 μl of TFA to the sample tube and matrix blank tube and the contents were mix and incubated at 100° C. for 4 hours. The vials were allowed to cool to room temperature. The vials were evaporated to dryness using a speed vac. Then, 300 μl of water was added to each tube and vortexed to resuspend the samples. […]
The enzymatic activity of PEGPH20 was measured by monitoring concentrations of hyaluronan present in the circulation.

[3] = tested on: hyaluronan; experiment: Hyaluronan staining of BxPC3 tumor sections; type: in vivo, human (xenograft in athymic female nude mice); settings: Day 18, dexamethasone low or high dose, PEGPH20 4.5 mg/kg, or both
Procedure: Tumor tissues from the two satellite mice from all 6 treatment groups in Example 9B.1 above, were harvested by tissue biopsy on Day 18 and stained for the presence of hyaluronan. Tumor biopsies were fixed in 10% NBF for 48 hours, embedded in paraffin, and sectioned. Samples were probed for hyaluronan using a biotinylated HA-binding protein (HABP), then probed with FITC-labeled streptavidin for detection. The cell nuclei were counterstained with DAPI (4′,6-diamidino-2-phenylindole) reagent. Micrographs were then captured using a Zeiss Microscope (Thornwood, N.Y.) coupled with the Spot imaging program (Diagnostic Instruments, Inc).
Hyaluronan expression in the sections was evaluated by the level of green fluorescent intensity in the sections.

[4] = tested on: tumor regions; experiment: Apparent diffusion coefficient MRI (ADC-MRI) of tumors; type: in vivo, human
Procedure: Scans were performed pre-treatment and post-treatment.
Apparent diffusion coefficient magnetic Resonance imaging (ADC-MRI) measures the volume of water that has moved across the cell membrane based upon a calculation derived from the pre- and post-treatment scans. ADC-MRI scans were completed for a total of 10 of the 14 patients in the study described in Example 6 and 4 of the 5 patients in the study described in Example 10. […] Increased ADC values are consistent with the mechanism of action of PEGPH20.

[5] = Dexamethasone premedication and PEGPH20-induced musculoskeletal observations
Procedure: In one study, four naïve male beagle dogs were orally dosed with 4 mg/dose dexamethasone twice a day on the day of PEGPH20 administration. The first dexamethasone dose was given orally (PO) immediately before PEGPH20 intravenous (IV) administration. The second dexamethasone dose was given orally ˜8 hours later. On day 1, one dog was dosed with 3040 U/kg (0.08 mg/kg) PEGPH20 after Dexamethasone. Twenty four hours later (day 2), a second dog was dosed with 5700 U/kg (0.15 mg/kg) PEGPH20 after Dexamethasone. Twenty four hours later (day 3), a third dog was dosed with 11400 U/kg (0.3 mg/kg) PEGPH20 after Dexamethasone. Twenty four hours later (day 4), a fourth dog was dosed with 38000 U/kg (1.0 mg/kg) PEGPH20 after Dexamethasone. Blood was collected pre-PEGPH20 administration, and 0.5 hr, 4 h and 24 h post-PEGPH20 administration.
PEGPH20 was administered IV with a 5 mL bolus injection via percutaneous needle puncture of the cephalic vein on study Days 1, 2 and/or 5. Dexamethasone was administered orally immediately before the PEGPH20 injection and approximately 8 hours post injection. All animals were re-dosed 3 days after the first injection except those in the PEGPH20 alone treatment group, which were not re-dosed.
Animals treated with only one dose of PEGPH20 were evaluated at 96 hours, 120 hours, 6, 7, 8, and 9 days post-dose.

[6] = Clinical study (Phase 1-101), musculoskeletal adverse events of PEGPH20
Source text: The median age of the patients was age 61 (range 56-86) with tumor types including histiocytoma, colorectal, pancreatic, bladder, carcinoid and ovarian. In all cases, the patients entered the program under pain medication related to their presenting condition but not for study drug-related pain.

[7] = tested on: 46 different cytokines, chemokines, acute-phase reactants, and other plasma inflammatory biomarkers; experiment: Human inflammation multi-analyte profile (MAP) of patient plasma; type: in vivo; settings: first two patients, single IV dose 0.05 mg/kg
Procedure: The patient plasma samples also were analyzed using a human inflammation multi-analyte profile (MAP) of 46 different cytokines, chemokines, acute-phase reactants, and other plasma inflammatory biomarkers.

[8] = Tolerability / musculoskeletal response to PEGPH20 in beagle dogs; type: in vivo, beagle dog
[9] = tested on: HA catabolites; experiment: HA catabolites in dogs; type: in vivo, beagle dog; settings: after PEGPH20 administration, with or without dexamethasone
Procedure: HA catabolites also were measured as described in Example 6.

[10] = tested on: PC3 prostate carcinoma cell line; settings: 157,500 Units/kg (about 4.5 mg/kg) IV Q3Dx5; cited from earlier work
[11] = all scanned patients of both studies

B1: PEGPH20 (protein)
chain: LNFRAPPVIPNVPFLWAWNAPSEFCLGKFDEPLDMSLFSFIGSPRINATGQGVTIFYVDRLGYYPYIDSITGVTVNGGIPQKISLQDHLDKAKKDITFYMPVDNLGMAVIDWEEWRPTWARNWKPKDVYKNRSIELVQQQNVQLSLTEATEKAKQEFEKAGKDFLVETIKLGKLLRPNHLWGYYLFPDCYNHHYKKPGYNGSCFNVEIKRNDDLSWLWNESTALYPSIYLNTQQSPVAATLYVRNRVREAIRVSKIPDAKSPLPVFAYTRIVFTDQVLKFLSQDELVYTFGETVALGASGIVIWGTLSIMRSMKSCLLLDNYMETILNPYIINVTLAAKMCSQVLCQEQGVCIRKNWNSSDYLHLNPDNFAIQLEKGGKFTVRGKPTLEDLEQFSEKFYCSCYSTLSCKEKADVKDTDAVDVCIADGVCIDAFLKPPMETEEPQIFY
With B1 the “hyaluronan staining of skeletal muscle” value ([1]; 24 h after Day 59 dose, antibody-positive dogs) was “did not remove extracellular hyaluronan in skeletal muscle samples”, the “hyaluronan staining, post-treatment skeletal muscle and skin” value ([1]; 24 h after first IV dose, PEGPH20 0.3 mg/kg alone, or 0.3 / 1.0 mg/kg + dexamethasone 4 mg BID) was “virtually no hyaluronan staining” and the “HA catabolite levels over a week” value ([2]; 0.5 μg/kg to 1.5 μg/kg, 12 patients) was “increased in a dose-dependent manner”. For the same molecule, the “plasma concentrations of hyaluronan” value ([2]; single 50 μg/kg dose) was “increased significantly”, the “hyaluronan staining of tumor sections” value [3] was “almost completely absent” and the “Change in Tumor ADC-MRI from baseline” value ([4]; 0.5 μg/kg, 2x/wk, scan D3) was “no change”. For the same molecule, the “Change in Tumor ADC-MRI from baseline” value ([4]; 0.5 μg/kg, 21 day cycle, individual patients, scan D3 or D4) was “decrease in lymph nodes; also recorded: increase”, the “Change in Tumor ADC-MRI from baseline” value ([4]; 0.75 μg/kg, 21 day cycle, individual patients, scan D3 (D30)) was “increase; also recorded: no change” and the “Change in Tumor ADC-MRI from baseline” value ([4]; 1.0 μg/kg, 21 day cycle, scan D5) was “increase”. For the same molecule, the “Change in Tumor ADC-MRI from baseline” value ([4]; 1.5 μg/kg, 21 day cycle, scan D3) was “no change”, the “Change in Tumor ADC-MRI from baseline” value ([4]; 50 μg/kg, scan D4) was “no change” and the “patients with ADC values decreased” value [4, 11] was 2 of 14. For the same molecule, the “patients with ADC values unchanged” value [4, 11] was 5 of 14, the “patients with increases in ADC-MRI” value [4, 11] was 7 of 14 and the “complete resolution of musculoskeletal observations post-dose” value ([5]; PEGPH20 0.3 mg/kg IV alone) was “approximately 72 hours”. The “onset of musculoskeletal observations post-dose” value ([5]; PEGPH20 0.3 mg/kg IV alone) was “approximately 10 hours”, the musculoskeletal observations ([5]; PEGPH20 11400 Units/kg (0.3 mg/kg) IV alone) was “moderate to severe musculoskeletal observations” and the dose-limiting toxicity ([6]; 0.5 μg/kg IV every 21 days) was “No dose-limiting toxicities”. For the same molecule, the “musculoskeletal side effects, severity” value ([6]; 0.5 μg/kg IV every 21 days, three patients) was “intermittent Grade 1 or transient Grade 2”, the dose-limiting toxicity ([6]; 0.5 μg/kg IV twice weekly) was “met dose-limiting toxicity” and the “severity of muscle/joint pain” value ([6]; 0.5 μg/kg IV twice weekly, after 2 doses) was “Grade 3”. For the same molecule, the “musculoskeletal pain leading to discontinuation (summary)” value ([6]; 0.5 μg/kg in a 21 day cycle) was “Grade 3”, the dose-limiting toxicity ([6]; 0.75 μg/kg IV every 21 days, Grade 3 event after first cycle) was “not considered a dose-limiting toxicity” and the “musculoskeletal side effects, severity” value ([6]; 0.75 μg/kg IV every 21 days, cohort and individual patients) was “intermittent Grade 1 or transient Grade 2; also recorded: Grade 1; also recorded: Grade 3; also recorded: Grade 2”. For the same molecule, the dose-limiting toxicity ([6]; 1.0 μg/kg IV every 21 days) was “no dose-limiting toxicities”, the “musculoskeletal symptoms, severity” value ([6]; 1.0 μg/kg IV every 21 days, one of three patients) was “Grade 1” and the dose-limiting toxicity ([6]; 1.5 μg/kg IV every 21 days, one patient) was “no dose-limiting toxicities”. The “musculoskeletal pain leading to discontinuation (summary)” value ([6]; 50.0 μg/kg dose twice weekly, individual patients) was “Grade 4; also recorded: Grade 3”, the duration of pain ([6]; single IV dose 0.05 mg/kg) was “more than 9 days” and the “onset of stiffness and muscle and joint pain after dosing” value ([6]; single IV dose 0.05 mg/kg) was 6 to 10 h. The “severity of muscle/joint pain” value ([6]; single IV dose 0.05 mg/kg, individual patients) was “Grade 3”, the “inflammation MAP findings” value [7] was “No notable findings” and the “reaction immediately post-dose after a break in dosing” value ([8]; 3040 Units/kg IV on Day 17, 26 or 33) was “systemic anaphylactoid-like reaction”. For the same molecule, the “musculoskeletal effects after re-dose” value ([8]; 3040 Units/kg IV on Day 59, antibody-positive dogs) was “No musculoskeletal effects were observed”, the “musculoskeletal responses, repeat daily dosing” value ([8]; Day 7 through Day 9, 3800 to 15200 Units/kg) was “No musculoskeletal responses were observed” and the “musculoskeletal responses, repeat daily dosing” value ([8]; Day 12, 60800 Units/kg (1.6 mg/kg), dog 288 IV) was “reduced mobility 2 hours after the 60800 Units/kg (1.6 mg/kg) dose with complete recovery within 10 hours post-dose”. For the same molecule, the “musculoskeletal responses, repeat daily dosing” value ([8]; Days 4 through 6, 1520 to 3040 Units/kg, IV or SC) was “reduced mobility (reduced ability to walk or stand), overall decreased activity, and muscle stiffness in the neck, back and extremities upon palpation; also recorded: the severity of the responses decreased from Day 4 to Day 6”, the “resolution of musculoskeletal responses” value ([8]; single dose 3040 U/kg on Day 1, three dogs) was no more than 4 days and the “time of musculoskeletal response post-dose” value ([8]; single dose 3040 U/kg, IV or SC, three dogs) was no more than 23 h. The musculoskeletal observations ([8]; single dose 3040 Units/kg (0.08 mg/kg), IV or SC) was “reduced mobility (reduced ability to walk or stand) and tighness of muscles of the neck, back and extremities upon palpation; also recorded: reduced mobility (reduced ability to walk or stand), overall decreased activity, and muscle stiffness in the neck, back and extremities upon palpation”, the “musculoskeletal observations on the following day” value ([8]; single dose of either 0.08 mg/kg or 0.3 mg/kg) was “reduced walking ability, difficulty standing, decreased activity and tightness of the muscles of the neck, back and extremities” and the HA catabolites [9] was “appearance of HA catabolites”. The “xenograft tumor growth inhibition, previously shown” value [10] was 34-70%.
